# Test results: patent US20150272076
# Columns and labels:
# Test in all cases: cell_activity
# [1] = system: FucT1_T04/FucT2_T04 TALEN left monomer (synthetic (TAL effector-FokI-type nuclease)?); conditions: pair activity on SEQ 70 and SEQ 71, yeast 37C; 0.5 at 30C
# [2] = system: FucT1_T01 TALEN right monomer (synthetic (TAL effector-FokI-type nuclease)?); conditions: pair activity on full site SEQ 66, yeast 37C; 0.6 at 30C
# [3] = system: FucT2_T02 TALEN left monomer (synthetic (TAL effector-FokI-type nuclease)?)
# [4] = system: FucT1_T02 TALEN left monomer (synthetic (TAL effector-FokI-type nuclease)?)
# [5] = system: XylT_T03 TALEN right monomer (synthetic (TAL effector-FokI-type nuclease)?); conditions: pair activity on full site SEQ 64, yeast 37C; 0.7 at 30C; protoplast NHEJ 34.4% XylT1, 28.2% XylT2 (Table 3)
# [6] = system: FucT1_T01 TALEN left monomer (synthetic (TAL effector-FokI-type nuclease)?); conditions: pair activity on full site SEQ 66, yeast 37C; 0.6 at 30C
# [7] = system: FucT1_T02/FucT2_T02 TALEN right monomer (synthetic (TAL effector-FokI-type nuclease)?); conditions: pair activity with either left monomer (SEQ 68 or 69), yeast 37C; 0.7 at 30C
# [8] = system: XylT_T03 TALEN left monomer (synthetic (TAL effector-FokI-type nuclease)?); conditions: pair activity on full site SEQ 64, yeast 37C; 0.7 at 30C; protoplast NHEJ 34.4% XylT1, 28.2% XylT2 (Table 3)
# [9] = system: XylT_T04 TALEN left monomer (synthetic (TAL effector-FokI-type nuclease)?); conditions: pair activity on full site SEQ 65, yeast 37C; 0.9 at 30C; protoplast NHEJ 73.8% XylT1, 63.9% XylT2 (Table 3)
# [10] = system: FucT2_T01 TALEN left monomer (synthetic (TAL effector-FokI-type nuclease)?); conditions: pair activity on full site SEQ 67, yeast 37C; 0.8 at 30C
# [11] = system: FucT2_T01 TALEN right monomer (synthetic (TAL effector-FokI-type nuclease)?); conditions: pair activity on full site SEQ 67, yeast 37C; 0.8 at 30C
# [12] = system: FucT1_T04/FucT2_T04 TALEN right monomer (synthetic (TAL effector-FokI-type nuclease)?); conditions: pair activity on SEQ 70 and SEQ 71, yeast 37C; 0.5 at 30C
sequence,measurement,setting,value
TTGCCTCTGTTCGTTGC (double strand) [FucT_T04 target 1 (SEQ 62)],activity (relative to I-SceI),[1],0.6
"AATAAGCAATGGCGCAA (double strand) [FucT1_T01 target 2 (SEQ 54, printed as top strand)]",activity (relative to I-SceI),[2],0.8
TTCAAACGCACCCGATA (double strand) [FucT2_T02 target 1 (SEQ 59)],activity (relative to I-SceI),"[3]; pair activity on full site SEQ 69, yeast 37C, 0.7 at 30C, protoplast NHEJ 45.0% FucT2 (Table 3)",0.9
same,activity,"[4]; FucT1_T02 pair on endogenous FucT2 (1-bp mismatch in left site), N. benthamiana protoplasts, control 0.14%",24.7 % NHEJ
TTCAAACGCACCCAATA (double strand) [FucT1_T02 target 1 (SEQ 57)],activity,"[3]; FucT2_T02 pair on endogenous FucT1 (1-bp mismatch in left site), N. benthamiana protoplasts, control 0.79%",46.5 % NHEJ
same,activity (relative to I-SceI),"[4]; pair activity on full site SEQ 68, yeast 37C, 0.7 at 30C, protoplast NHEJ 39.2% FucT1 (Table 3)",0.9
"ATCACTCTCTATCTCTA (double strand) [XylT_T03 target 2 (SEQ 50, printed as top strand)]",activity (relative to I-SceI),[5],0.9
TGAGATCGGCGTCAAAT (double strand) [FucT1_T01 target 1 (SEQ 53)],activity (relative to I-SceI),[6],0.8
"CTCTGTTCGTTGCCCTA (double strand) [FucT_T02 target 2 (SEQ 58, printed as top strand)]",activity (relative to I-SceI),[7],0.9
TTCTTGTTTCTCTCTTC (double strand) [XylT_T03 target 1 (SEQ 49)],activity (relative to I-SceI),[8],0.9
TCTCTTCGCTCTCAACT (double strand) [XylT_T04 target 1 (SEQ 51)],activity (relative to I-SceI),[9],0.9
TGAGATCGTCGTCAAAT (double strand) [FucT2_T01 target 1 (SEQ 55)],activity (relative to I-SceI),[10],0.9
"GATAAACAATGGCGCAA (double strand) [FucT2_T01 target 2 (SEQ 56, printed as top strand)]",activity (relative to I-SceI),[11],0.9
"TTTCTGGTTCGACTCGA (double strand) [FucT_T04 target 2 (SEQ 63, printed as top strand)]",activity (relative to I-SceI),[12],0.6
